{"source": "patent US20220251157A1", "about": "(MAYO FOUNDATION FOR MEDICAL EDUCATION AND RESEARCH, published 2022)", "binders": {"B1": {"name": "B7-DC XAb (antibody)", "light": "not shown", "heavy": "QVQLQESGPGLLKPSETLSLTCTVSGGSVSLYYWSWIRQSPGKEPEWIGYIYSSGSTDYNPSLRSRVTISLDTSNNRFSLNLRSVTAADTAVYWCARSASIRGWFDPWGQGTLVTVSSGSASAPTLFPLVSCENSPSDTSSVAVGCLAQDFLPDSITFSWKYKNNSDISSTRGFPSVLRGGKYAATSQVLLPSKDVMQGTDEHVVCKVQHPNGNKEKNVPLPVIAELPPKVSVFVPPRDGFFGNPRKSKLICQATGFSPRQIQVSWLREGKQVGSGVTTDQVQAEAKESGPTTYKVTSTLTIKESDWLSQSMFTCRVDHRGLTFQQNASSMCVPDQDTAIRVFAIPPSFASIFLTKSTKLTCLVTDLTTYDSVTISWTRQNGEAVKTHTNISESHPNATFSAVGEASICEDDWNSGERFTCTVTHTDLPSPLKQTISRPKGVALHRPDVYLLPPAREQLNLRESATITCLVTGFSPADVFVQWMQRGQPLSPEKYVTSAPMPEPQAPGRYFAHSILTVSEEEWNTGETYTCVVAHEALPNRVTERTVDKSTGKPTLYNVSLVMSDTAGTCY", "notes": "Human monoclonal IgM from a Waldenstrom's macroglobulinemia patient; J chain not described; Used at 10 ug/ml; also called hIgM12; sHIgM12"}}, "key": {"[1]": {"molecular_target": "T1, 12p9a (disulfide 1-9; also: displayed on phage)", "T1 peptide": "CHQTEKLTC", "test": "phage display panning (Ph.D.-C7C) on immobilized antibody, bound phage eluted; 11x clones", "source_text": "(§1) A phage display system (Ph.D.-C7C Peptide Library Kit, New England Biolabs) was used to select 7-mer peptides in a cysteine loop for either hIgM12 or hIgM22. Briefly, a random peptide bacteriophage library was panned against immobilized antibody. Unbound bacteriophage was washed away, and bound bacteriophage was eluted, regrown and re-panned against the antibody. Multiple (three to seven) rounds of panning led to development of a peptide consensus sequence for each antibody. Two similar consensus sequences were identified for hIgM22, while one consensus sequence was identified for hIgM12 (Table 1)."}, "[2]": {"molecular_target": "T2, 12p4 (disulfide 1-9; also: displayed on phage)", "T2 construct": "one clone only", "T2 peptide": "CARNSTPPC", "test": "phage display panning (Ph.D.-C7C) on immobilized antibody, bound phage eluted; 1x clone", "source_text": "as §1"}}, "note": "Positions of bridges follow the written chain, without caps; N, C: chain ends. No end group written: not given here."}
{"binder": "B1", "values": [{"measurement": "binding result", "setting": "[1]", "result": "binds"}, {"measurement": "binding result", "setting": "[2]", "result": "binds"}]}
